Earlier results in paper PMC11969719, “Rapid synthesis of glycosylated insulins by flow-based peptide synthesis” (Chemical Science, 2025).

Conditions: ref [5c,18]
Excerpt: To address this issue, we incorporated an isoacyl dipeptide unit at the Thr^A8-Ser^A9 position (superscripts indicate positions in the A-chain), following a previous report,[8b] as the isoacyl dipeptide improves both peptide solubility and synthetic efficiency.[19]

For “A-chain: insulin A-chain, 21-amino acid chain of human insulin”, the “solubility (in words)” value is listed as “poor solubility”.
